Non-standard residues stand in square brackets, D forms with d. No end group written: not given here. pY = N[C@@H](Cc1ccc(OP(=O)(O)O)cc1)C(=O)O
Target: STAT3 with DNA-binding activity in vitro (activated STAT3 dimers)
Assay: cell-based or functional assay

Row | Binder | IC50, Disruption of STAT3 DNA-binding Activity
1 | Ac-P[pY]LKTK [Ac-PY*LKTK (SEQ ID NO:32)] | 212 µM
2 | A[pY]LK [AY*LK (SEQ ID NO:30)] | 365 µM
3 | Ac-P[pY]LK [Ac-PY*LK (SEQ ID NO:34)] | 156 µM

Continued, values first:

Row | IC50, Disruption of STAT3 DNA-binding Activity | Binder
4 | 280 µM | P[pY]LKTK [PY*LKTK (SEQ ID NO:20)]
5 | 421 µM | Ac-[pY]-Leu-Lys [Ac-Y*LK (SEQ ID NO:31)]
6 | 326 µM | P[pY]LA [PY*LA (SEQ ID NO:35)]

Source: patent publication US20070060521A1 (UNIVERSITY OF SOUTH FLORIDA A PUBLIC CORPORATION OF THE …, published 2007)
